“And” between values parts separate entries of the source, which are not always exact repeats. Equal entries are not always repeated.
T1: human CC chemokine receptor 4 (CCR4) (human, UniProt P51679 1-360)
T1 construct: whole, on cells; Always presented on cells; also called CD194; human CCR4
T1 sequence (looked up): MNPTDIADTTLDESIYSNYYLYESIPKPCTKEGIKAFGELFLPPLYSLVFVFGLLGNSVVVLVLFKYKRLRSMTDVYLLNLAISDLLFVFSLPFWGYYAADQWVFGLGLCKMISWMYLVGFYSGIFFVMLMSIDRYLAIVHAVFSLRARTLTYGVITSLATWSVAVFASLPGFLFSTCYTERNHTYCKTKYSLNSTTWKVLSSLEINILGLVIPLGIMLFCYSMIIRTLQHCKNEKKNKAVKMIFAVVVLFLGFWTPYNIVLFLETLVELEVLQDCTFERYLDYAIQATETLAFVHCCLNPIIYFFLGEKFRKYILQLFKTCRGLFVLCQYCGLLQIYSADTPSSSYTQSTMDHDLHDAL


Assays:
[1] = molecular target: T1, human CC chemokine receptor 4 (CCR4); experiment: flow cytometry competition on CCRF-CEM cells; IgG titrated, competitor biotinylated TARC (ca. 20 nM)
Description: The competition binding assays were performed with biotinylated MDC or biotinylated TARC on DT-40-CCR4+ and CCRF-CEM cells. DT40 and CCRF-CEM cells were cultured as described in Example 2. TARC and MDC were biotinylated using standard procedures. The biotinylation process causes some losses, so the concentrations of biotinylated MDC and TARC recited herein are approximate.
The cells were harvested from culture flasks, washed 2 times with PBS (400×g, 5 min, 4° C.) and resuspended in PBS containing 0.2% BSA and 0.09% NaN3. 1×10^5 cells per well were aliquoted into V-shaped 96-well plates (Greiner Bio-One, Frikenhausen, Germany). Cells were centrifuged (400×g, 5 min, 4° C.) and resuspended in 50 μl IgG, single chain or unlabeled ligand (1:10 dilution series starting on 100/500/26, 4 μg/ml) mixed with a fixed concentration of biotinylated ligand (10 or 20 nM, see legend to FIG. 24). The cells were incubated for 2 hours at 4° C. and mixed with a pipette every 45 min. The cells were washed three times with 150 μl PBS with 0.2% BSA and 0.09% NaN3 and stained with 3 μg/ml streptavidin PE (BD Biosciences) for 45 minutes at 4° C. […] Apparent binding affinities (KD) were calculated according to the following equation derived from previously described methods (Kipriyanov et al, 1997b; Schodin & Kranz, 1993): […]

[2] = molecular target: T1, human CC chemokine receptor 4 (CCR4); experiment: flow cytometry, IgG titration on CCR4+ HEK293T cells; one site-specific binding fit (Prism)
Description: (§1) The IgG forms of antibodies 17G, 9E and KM3060var using various CCR4⁺ cell types were used (see Example 2).
(§2) For the flow cytometry experiments, the cells were harvested from the culture flasks, washed 2 times with PBS, re-suspended in PBS with 0.2% BSA and 0.09% NaN₃ and finally aliquoted 1×10⁵ cells per well into V-shaped 96-well plates (Greiner Bio-One, Frickenhausen, Germany). Cells were centrifuged at 400×g for 5 min and then incubated at 4° C. for 45 min with different antibody dilutions.
(§3) After washing with PBS with 0.2% BSA and 0.09% NaN₃, the cells were stained with 10 μg/ml of RPE-conjugated goat anti-human IgG (AbDSerotec, Düsseldorf, Germany) for 30 minutes at 4° C. The stained cells were washed, re-suspended in 200 μl PBS with 0.2% BSA and 0.09% NaN₃ and transferred to a U-shaped 96-well plate (Corning, Schiphol-Rijk, The Netherlands) for acquisition on EasyCyte flow cytometer (Guava Technologies, Hayward, Calif., USA).

[3] = molecular target: T1, human CC chemokine receptor 4 (CCR4); experiment: flow cytometry, IgG titration on CCR4+ DT40 cells (2); one site-specific binding fit (Prism)
Description: as §1, §2, §3

[4] = molecular target: T1, human CC chemokine receptor 4 (CCR4); experiment: flow cytometry, IgG titration on CCRF-CEM cells (natural CCR4+), triplicates, RPE goat anti-human IgG, Median (YLW-HLog)
Source text: As a positive control, in-house cloned and expressed KM3060var IgG which is specific for an epitope present in positions 2-29 in N-terminal part of human CCR4 (EP1270595) was used. An anti-GFP antibody (raised against the green fluorescent protein) or the anti-VZV antibody (raised against Varicella zoster virus) were used as negative controls (anti-GFP both as scFv and IgG, while anti-VZV only as scFv).
as §2, §3

[5] = molecular target: T1, human CC chemokine receptor 4 (CCR4); experiment: competition flow cytometry on CCR4-transfected DT40 cells: unlabelled IgG against 7 nM biotinylated 9E IgG, streptavidin-RPE
Description: To analyze the epitope binding of anti-CCR4 antibodies 17G, 9E and KM3060var, competition experiments were performed using flow cytometry. The binding of biotinylated antibodies to CCR4 transfected DT40-cells was challenged in the presence of different concentrations of non-biotinylated anti-CCR4 antibodies. The CCR4⁺ DT40 cells were harvested from culture flasks, washed 2 times with PBS, re-suspended in PBS with 0.2% BSA and 0.09% NaN₃ and finally aliquoted 1×10⁵ cells per well into V-shaped 96-well plates (Greiner Bio-One, Frickenhausen, Germany). Cells were centrifuged at 400×g for 5 min and then incubated at 4° C. for 3-4 hours with fixed amounts of biotinylated IgG and different concentrations of non-biotinylated antibodies. After washing with PBS with 0.2% BSA and 0.09% NaN₃, the cells were stained with 2.5 μg/ml of Streptavidin—RPE (BD Pharmingen, San Diego, Calif., USA) for 30 minutes at 4° C. The stained cells were washed, re-suspended in 250 μl PBS with 0.2% BSA and 0.09% NaN₃ and transferred to a U-shaped 96-well plate (Corning, Schiphol-Rijk, The Netherlands) for acquisition on EasyCyte flow cytometer (Guava Technologies, Hayward, Calif., USA). The results shown in FIGS. 10 A, B and C illustrate that the 17G and 9E antibodies have epitopes that are identical or at least overlapping.

Row | IC50 [1] | Kd [2] [nM] | Kd [3] [nM] | EC50 (read off the curve) [4] [nM] | IC50 (read off the curve) [5] [nM] | Binder
1 | 4.26 nM and 4.57 nM | – | – | – | – | 9E10J IgG (full length human IgG1, lambda) (antibody, V domains shown, also called IgG 9E10J; unmodified 9E10J) VH: QVQLVQSGAEVKKPGSSVKVSCKASGGTFSSYAISWVRQAPGQGLEWMGGIIPIFGTANYAQKFQGRVTMTRDTSTSTVYMELSSLRSEDTAVYYCARRGGSYFDYWGQGTLVTVSS VL: SYVLTQPPSASGTPGQSVTISCSGSTSNIGSHYVFWYQQLPGTAPRLLIYRNHQRPSGVPDRLSGSKSGTSASLAISGLRSEDEADYYCAVWDDTLSGWVFGGGTKLTVLG
2 | – | 0.36 | 0.17 | ~0.4 | ~3 | 9E IgG (full length human IgG1, lambda) (antibody, V domains shown, also called IgG 9E; IgG1 9E) VH: QVQLVQSGAEVKKPGSSVKVSCKASGGTFSNYAISWVRQAPGQGLEWMGGIIPIFGTANYAQKFQGRVTITADESTSTAYMELSSLRSEDTAVYYCARRGGSYFDYWGQGTLVTVSS VL: SYVLTQPPSASGTPGQSVTISCSGSTSNIGSHYVFWYQQLPGTAPRLLIYRNHQRPSGVPDRLSGSKSGTSASLAISGLRSEDEADYYCAVWDDTLSGWVFGGGTKLTVLG

Source: patent US20160208003A1 (AFFITECH RESEARCH, published 2016)
